From US20250230244A1 (University of Texas, published 2025)

T1: B7-H3 peptide 4 (human)
T1 peptide: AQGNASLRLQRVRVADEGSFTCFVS

T2: B7-H3 peptide 5 (human)
T2 construct: Said to lie in the IgV domain spanning through the FG loop
T2 peptide: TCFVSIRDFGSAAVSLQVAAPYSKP

T3: B7-H3 peptide 2 (human)
T3 peptide: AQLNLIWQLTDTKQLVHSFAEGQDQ

T4: B7-H3 peptide 7 (human)
T4 peptide: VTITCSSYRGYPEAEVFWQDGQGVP

T5: B7-H3 peptide 8 (human)
T5 peptide: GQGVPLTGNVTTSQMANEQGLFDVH

T6: B7-H3 peptide 6 (human)
T6 peptide: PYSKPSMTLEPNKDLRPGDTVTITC

T7: B7-H3 peptide 10 (human)
T7 peptide: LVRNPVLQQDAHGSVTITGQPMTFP

T8: B7-H3 peptide 3 (human)
T8 peptide: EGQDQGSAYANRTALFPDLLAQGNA

T9: B7-H3 peptide 1 (human)
T9 peptide: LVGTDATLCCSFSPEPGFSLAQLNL


Tests used:
B7-H3 peptide 4 [1] = target: T1, B7-H3 peptide 4; assay: biolayer interferometry (Octet) traces, concentrations not printed [Peptide 4, column T-1A5]
B7-H3 peptide 5 [2] = target: T2, B7-H3 peptide 5; assay: biolayer interferometry (Octet), number beside the raw traces [panel D, T-1A5-peptide 5]
B7-H3 peptide 2 [3] = target: T3, B7-H3 peptide 2; assay: biolayer interferometry (Octet) traces, concentrations not printed [Peptide 2, column T-1A5]
Method: (§1) The Octet RED384 System (FortdBio) was used to further characterize the chimeric and murine clones. The kinetics of the clones were tested by measuring the interaction between the antibody and its target by bio-layer interferometry technology.
(§2) The inventors generated 10 peptides from the extracellular domain of B7-H3 with a span of 25 amino acids and an overlap of 5 amino acids with each subsequent peptide.

B7-H3 peptide 7 = target: T4, B7-H3 peptide 7; assay: biolayer interferometry (Octet), epitope mapping table [panel D, row Peptide 7]
Method: as §1, §2

B7-H3 peptide 5 [4] = target: T2, B7-H3 peptide 5; assay: biolayer interferometry (Octet), epitope mapping with B7-H3 peptides [panel D, row Peptide 5]
Method: as §1, §2

B7-H3 peptide 8 = target: T5, B7-H3 peptide 8; assay: biolayer interferometry (Octet), epitope mapping table [panel D, row Peptide 8]
Method: as §1, §2

B7-H3 peptide 6 [5] = target: T6, B7-H3 peptide 6; assay: biolayer interferometry (Octet) traces, concentrations not printed [continued), Peptide 6, left column]
Method: as §1, §2

B7-H3 peptide 10 = target: T7, B7-H3 peptide 10; assay: biolayer interferometry (Octet), epitope mapping table [panel D, row Peptide 10]
Method: as §1, §2

B7-H3 peptide 3 [6] = target: T8, B7-H3 peptide 3; assay: biolayer interferometry (Octet) traces, concentrations not printed [Peptide 3, column T-1A5]
B7-H3 peptide 1 [7] = target: T9, B7-H3 peptide 1; assay: biolayer interferometry (Octet), epitope mapping table [panel D, row Peptide 1]
Method: as §1, §2

B7-H3 peptide 6 [8] = target: T6, B7-H3 peptide 6; assay: biolayer interferometry (Octet), epitope mapping table [panel D, row Peptide 6]
Method: as §1, §2

B7-H3 peptide 2 [9] = target: T3, B7-H3 peptide 2; assay: biolayer interferometry (Octet) traces, concentrations not printed [Peptide 2, column ChT-1A5]
B7-H3 peptide 4 [10] = target: T1, B7-H3 peptide 4; assay: biolayer interferometry (Octet) traces, concentrations not printed [Peptide 4, column ChT-1A5]
Method: as §1, §2

B7-H3 peptide 1 [11] = target: T9, B7-H3 peptide 1; assay: biolayer interferometry (Octet) traces, concentrations not printed [Peptide 1, column ChT-1A5]
B7-H3 peptide 3 [12] = target: T8, B7-H3 peptide 3; assay: biolayer interferometry (Octet) traces, concentrations not printed [Peptide 3, column ChT-1A5]

Row | binding result (B7-H3 peptide 4 [1]) | Kd (B7-H3 peptide 5 [2]) | binding result (B7-H3 peptide 2 [3]) | binding result (B7-H3 peptide 7) | Kd (B7-H3 peptide 5 [4]) | binding result (B7-H3 peptide 8) | binding result (B7-H3 peptide 6 [5]) | binding result (B7-H3 peptide 10) | binding result (B7-H3 peptide 3 [6]) | binding result (B7-H3 peptide 1 [7]) | binding result (B7-H3 peptide 6 [8]) | binding result (B7-H3 peptide 2 [9]) | binding result (B7-H3 peptide 4 [10]) | binding result (B7-H3 peptide 1 [11]) | binding result (B7-H3 peptide 3 [12]) | Binder
1 | no binding | 151 nM | no binding | no binding | 151 nM | no binding | no binding | no binding | no binding | no binding |  |  |  |  |  | anti-B7-H3 monoclonal antibody T-1A5 (mouse, isotype IgG1) (antibody, also called T-1A5A10; mAb T-1A5) heavy: QVQLQQSGAELVKPGASVKLSCKASGYTFTSYDINWVRQRPEQGLEWIGWIFPGDDTTNYNENFKGKATLTADKSSSTAYMQLTRLTSEDSAVFFCARSVGFDYWGQGTTLTVSSAKTTPPSVYPLAPGSAAQTNSMVTLGCLVKGYFPEPVTVTWNSGSLSSGVHTFPAVLQSDLYTLSSSVTVPSSTWPSETVTCNVAHPASSTKVDKKIVPRDCGCKPCICTVPEVSSVFIFPPKPKDVLTITLTPKVTCVVVDISKDDPEVQFSWFVDDVEVHTAQTQPREEQFNSTFRSVSELPIMHQDWLNGKEFKCRVNSAAFPAPIEKTISKTKGRPKAPQVYTIPPPKEQMAKDKVSLTCMITDFFPEDITVEWQWNGQPAENYKNTQPIMDTDGSYFVYSKLNVQKSNWEAGNTFTCSVLHEGLHNHHTEKSLSHSPGK light: QIVLIQSPAIMSASPGEKVTMTCSASSSISYMYWYQQKPGTSPKRWIFETSKLASGVPARFSGSGSGTSYSLTISSMEAEDAATYYCHQRSSYPTFGGGTKLEIKRADAAPTVSIFPPSSEQLTSGGASVVCFLNNFYPKDINVKWKIDGSERQNGVLNSWTDQDSKDSTYSMSSTLTLTKDEYERHNSYTCEATHKTSTSPIVKSFNRNEC
2 |  |  |  | no binding |  | no binding |  | no binding |  |  | no binding | no binding | no binding | no binding | no binding | human-mouse chimeric anti-B7-H3 antibody ChT-1A5 (antibody, human IgG1, kappa, also called chimeric T-1A5 antibody) heavy: not shown light: QIVLIQSPAIMSASPGEKVTMTCSASSSISYMYWYQQKPGTSPKRWIFETSKLASGVPARFSGSGSGTSYSLTISSMEAEDAATYYCHQRSSYPTFGGGTKLEIKRTVAAPSVFIFPPSDEQLKSGTASVVCLLNNFYPREAKVQWKVDNALQSGNSQESVTEQDSKDSTYSLSSTLTLSKADYEKHKVYACEVTHQGLSSPVTKSFNRGEC
